Publication PMC9826845, “Characterization of the Escherichia coli XPD/Rad3 iron-sulfur helicase YoaA in complex with the DNA polymerase III clamp loader subunit chi (χ)”

Target: YoaA (6xHis);chi (DNA polymerase III clamp loader subunit) (Escherichia coli;Escherichia coli, UniProt P76257;P28905 1-636;1-147, |)
Test: fluorescein quenching titration; 0.5 mM ATPgS; rough estimate, no saturation; assay buffer B (composition not in the material) with 0.5 mM ATPgS, 50 nM DNA, YoaA-chi 0.1 nM-2 uM (Kd titration) or 1 uM; temperature and pH not given
Conditions: protein: recombinant;recombinant, 6xHis (His-YoaA);, copies: 1;1, label: fluorescein, 20 bp, other end blunt

Chain of YoaA (6xHis);chi (DNA polymerase III clamp loader subunit) (P76257 whole entry, chain 1 of 2): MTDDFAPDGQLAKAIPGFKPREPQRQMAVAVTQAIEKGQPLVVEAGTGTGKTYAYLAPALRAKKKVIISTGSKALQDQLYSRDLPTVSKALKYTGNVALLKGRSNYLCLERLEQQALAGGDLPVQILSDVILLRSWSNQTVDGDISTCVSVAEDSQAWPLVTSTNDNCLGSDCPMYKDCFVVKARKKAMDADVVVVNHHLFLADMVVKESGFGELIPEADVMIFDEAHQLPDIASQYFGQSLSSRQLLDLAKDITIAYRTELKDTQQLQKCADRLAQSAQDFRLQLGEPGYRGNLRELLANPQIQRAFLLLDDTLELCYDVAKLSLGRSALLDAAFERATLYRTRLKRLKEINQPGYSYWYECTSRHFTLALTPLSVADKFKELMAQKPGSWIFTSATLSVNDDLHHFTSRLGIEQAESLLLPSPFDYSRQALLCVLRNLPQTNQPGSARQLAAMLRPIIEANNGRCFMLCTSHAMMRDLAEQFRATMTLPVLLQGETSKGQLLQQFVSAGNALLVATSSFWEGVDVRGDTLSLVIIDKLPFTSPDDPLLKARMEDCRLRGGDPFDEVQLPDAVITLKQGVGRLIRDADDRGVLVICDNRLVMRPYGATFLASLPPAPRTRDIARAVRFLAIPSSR
Chain of YoaA (6xHis);chi (DNA polymerase III clamp loader subunit) (P28905 whole entry, chain 2 of 2): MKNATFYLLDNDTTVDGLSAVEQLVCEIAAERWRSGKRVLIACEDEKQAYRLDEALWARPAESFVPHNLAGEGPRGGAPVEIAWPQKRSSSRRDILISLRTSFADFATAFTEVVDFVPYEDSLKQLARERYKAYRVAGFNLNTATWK

B1: B3 forked duplex (S4 + S5) (dsDNA)
DNA 1: TTTTTTTTTTTTTTTTTTTTTTTTTTTTTTTTTTTATAAAAGGGACATTCTGGCC
DNA 2: GGCCAGAATGTCCCTTTTATTACTGGTCGT
modifications: fluorescein at T15 of strand 2 (printed F, written as T)
With B1 the Kd (fork: 35 nt 5' overhang on strand 1, 10 nt 3' overhang on strand 2) was about 328 nM.

B2: B2 5' overhang duplex (S18 + S5) (dsDNA)
DNA 1: B1 DNA 1
DNA 2: GGCCAGAATGTCCCTTTTAT
modifications: fluorescein at T15 of strand 2 (printed F, written as T), 6 nt from junction
Work on B2 yielded a Kd (35 nt 5' overhang on strand 1) of about 350 nM.
